From patent US10738127B2, “Monoclonal antibodies prevent cell surface protein shedding and block tumor growth” (VERITAS BIOTECNOLOGIA LTDA, priority 2016, dated 2020)

Key:
MMP-9 = MMP-9 (Homo sapiens, UniProt P14780); assay: MMP-9 enzymatic activity / E-cadherin cleavage assay; type: biochemical
Experimental: The synthetic peptide pep_VLS02 was used as a competitive inhibitor of MMP-9. The MMP-9 enzymatic activity is reduced in the presence of synthetic peptide (FIG. 10). The inhibitory effect of pep_VLS02 against cleavage of E-cadherin opens a new window for the development of new inhibitors.
On the other hand, when the polyclonal antibody pAb_VLS02 is added to the assay, in the presence of its corresponding peptide, the MMP-9 activity was reestablished (FIG. 10). Thus, pep_VLS02 and its correspondent polyclonal antibody modulate MMP-9 activity and inhibit the E-cadherin cleavage.

[1] = tested on: E-cadherin linker segment; assay: Titration of immunized mice sera against the E-cadherin linker segment peptides (FIG. 6); type: binding; details: immunization of mice
From the text: Polyclonal antibodies against synthetic peptides pep_VLS02 (RKAQPVEAGLQIPAC; SEQ ID NO: 4) and pep_VLS03 (VEAGLQIPAC; SEQ ID NO: 3) were produced according to methods known in the art.

Sequence of MMP-9 (P14780 94-707, species assumed): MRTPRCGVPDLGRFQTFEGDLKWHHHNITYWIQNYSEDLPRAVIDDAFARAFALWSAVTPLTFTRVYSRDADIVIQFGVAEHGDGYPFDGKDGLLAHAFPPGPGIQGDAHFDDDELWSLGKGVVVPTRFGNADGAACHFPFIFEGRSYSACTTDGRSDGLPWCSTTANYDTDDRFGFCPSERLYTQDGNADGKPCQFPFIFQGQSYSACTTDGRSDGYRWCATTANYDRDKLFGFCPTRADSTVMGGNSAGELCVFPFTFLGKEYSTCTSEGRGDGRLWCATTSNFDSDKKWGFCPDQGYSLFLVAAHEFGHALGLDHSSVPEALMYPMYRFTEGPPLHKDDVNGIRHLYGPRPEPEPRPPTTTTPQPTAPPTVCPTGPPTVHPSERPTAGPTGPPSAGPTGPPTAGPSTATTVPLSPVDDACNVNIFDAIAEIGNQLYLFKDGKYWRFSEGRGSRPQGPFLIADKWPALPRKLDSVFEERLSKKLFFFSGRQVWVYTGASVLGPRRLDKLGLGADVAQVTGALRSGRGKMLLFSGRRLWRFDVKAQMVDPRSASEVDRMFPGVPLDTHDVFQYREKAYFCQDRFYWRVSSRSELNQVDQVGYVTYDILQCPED

| Sequence | E-cadherin cleavage by a metalloprotease (MMP-9; FIG. 10) | MMP-9 enzymatic activity (MMP-9; in the presence of synthetic peptide as competitive inhibitor) | immunogenic capacity [1] |
| --- | --- | --- | --- |
| RKAQPVEAGLQIPAC [pep_VLS02, synthetic antigenic peptide covering the cleavage site of E-cadherin plus a cysteine residue at the end] | inhibit E-cadherin cleavage | reduced | confirmed the immunogenic capacity |
| VEAGLQIPAC [pep_VLS03, synthetic antigenic peptide of the E-cadherin linker segment plus a cysteine residue] | – | – | confirmed the immunogenic capacity |
